Where a chain is given by its changes, count along the chain named.

We go through five molecules from publication doi:10.1101/2025.05.02.651952 (bioRxiv, 2025).

To fix the notation:
B1: Sis1-WT (natural protein)
chain: MVKETKLYDLLGVSPSANEQELKKGYRKAALKYHPDKPTGDTEKFKEISEAFEILNDPQKREIYDQYGLEAARSGGPSFGPGGPGGAGGAGGFPGGAGGFSGGHAFSNEDAFNIFSQFFGGSSPFGGADDSGFSFSSYPSGGGAGMGGMPGGMGGMHGGMGGMPGGFRSASSSPTYPEEETVQVNLPVSLEDLFVGKKKSFKIGRKGPHGASEKTQIDIQLKPGWKAGTKITYKNQGDYNPQTGRRKTLQFVIQEKSHPNFKRDGDDLIYTLPLSFKESLLGFSKTIQTIDGRTLPLSRVQPVQPSQTSTYPGQGMPTPKNPSQRGNLIVKYKVDYPISLNDAQKRAIDENF
B2: Sis1-[change] (natural protein)
chain: B1 chain with E53A
B3: Sis1-[change] (natural protein)
chain: B1 chain with S49V
B4: Sis1-[change] (natural protein)
chain: B1 chain with N56L
B5: Sis1-[change] (natural protein)
chain: B1 chain with E53K

Sequence of Ssa1-WT (P10591 whole entry): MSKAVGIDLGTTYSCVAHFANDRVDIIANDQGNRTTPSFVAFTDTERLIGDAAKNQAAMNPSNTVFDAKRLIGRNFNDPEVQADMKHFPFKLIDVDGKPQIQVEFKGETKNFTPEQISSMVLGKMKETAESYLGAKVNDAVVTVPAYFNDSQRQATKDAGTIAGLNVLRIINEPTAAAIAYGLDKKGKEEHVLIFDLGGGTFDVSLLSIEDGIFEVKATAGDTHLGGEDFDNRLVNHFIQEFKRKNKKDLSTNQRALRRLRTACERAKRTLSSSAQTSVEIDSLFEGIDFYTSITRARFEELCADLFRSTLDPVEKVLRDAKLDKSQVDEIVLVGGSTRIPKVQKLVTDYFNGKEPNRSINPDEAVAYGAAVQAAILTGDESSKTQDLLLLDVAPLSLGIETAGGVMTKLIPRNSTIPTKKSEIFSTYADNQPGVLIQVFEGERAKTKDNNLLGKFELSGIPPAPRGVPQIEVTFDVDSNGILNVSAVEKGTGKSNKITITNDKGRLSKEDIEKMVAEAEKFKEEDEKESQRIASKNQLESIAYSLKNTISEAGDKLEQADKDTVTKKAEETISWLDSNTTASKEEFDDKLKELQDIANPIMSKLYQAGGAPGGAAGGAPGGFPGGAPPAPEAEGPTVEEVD

The target of the first test is firefly luciferase (denatured) (firefly, UniProt P08659 1-550 = luciferase). Nature of the test: ELISA.
Sequence of firefly luciferase (denatured) (P08659 whole entry): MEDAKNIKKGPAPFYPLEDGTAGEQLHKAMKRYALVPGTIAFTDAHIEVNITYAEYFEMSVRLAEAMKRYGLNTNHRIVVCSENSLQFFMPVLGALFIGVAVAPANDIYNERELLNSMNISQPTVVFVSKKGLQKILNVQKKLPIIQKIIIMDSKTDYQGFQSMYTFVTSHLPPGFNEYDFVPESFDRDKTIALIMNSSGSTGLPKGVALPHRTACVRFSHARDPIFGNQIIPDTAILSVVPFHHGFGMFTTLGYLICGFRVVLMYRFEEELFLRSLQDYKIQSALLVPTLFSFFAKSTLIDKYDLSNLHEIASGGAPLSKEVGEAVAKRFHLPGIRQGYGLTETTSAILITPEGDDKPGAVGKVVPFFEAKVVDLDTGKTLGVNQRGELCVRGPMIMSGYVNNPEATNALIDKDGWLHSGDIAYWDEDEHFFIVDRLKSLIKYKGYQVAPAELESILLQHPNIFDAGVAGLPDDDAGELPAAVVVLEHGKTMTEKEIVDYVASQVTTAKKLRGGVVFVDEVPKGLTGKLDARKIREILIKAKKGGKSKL
As for B1, the binding result is “binds”.
Turning to B2, the binding result is given as “binds”.
With B3, the binding result is “binds”.
On the same count and under the same terms, the result for B4 reads “binds”; that for B5, “binds”.

Another test addresses Ssa1-WT (yeast, UniProt P10591 1-642). Nature of the test: ELISA.
As to B1, the binding result was “binds”.
Consider B2, for which the binding result was “binds”.
On to B3, for which the binding result is “binds”.
As for B4, the binding result is listed as “binds”.
The same measure, in the same setting: the result for B5 reads “binds”.
